Laboratory results published in article PMC5818509, “Crystal structure of the hydroxylaminopurine resistance protein, YiiM, and its putative molybdenum cofactor-binding catalytic site” (Scientific Reports, 2018).

Target: the molecule itself
Experiment: SEC; gel filtration, Superdex 200 10/300, room temperature, 20 mM Tris pH 8.0, 150 mM NaCl, 5 mM β-mercaptoethanol; BL21-expressed and TP1000-expressed proteins

B1: Escherichia coli YiiM (natural protein)
chain: MRYPVDVYTGKIQAYPEGKPSAIAKIQVDGELMLTELGLEGDEQAEKKVHGGPDRALCHYPREHYLYWAREFPEQAELFVAPAFGENLSTDGLTESNVYMGDIFRWGEALIQVSQPRSPCYKLNYHFDISDIAQLMQNTGKVGWLYSVIAPGKVSADAPLELVSRVSDVTVQEAAAIAWHMPFDDDQYHRLLSAAGLSKSWTRTMQKRRLSGKIEDFSRRLWGK
notes: YiiM, a MOSC family protein of Escherichia coli; gene amplified by PCR from E. coli genomic DNA; calculated molecular weight 25.9 kDa; The BL21- and the TP1000-expressed protein are written as one molecule (both behaved alike); the crystal was grown from the TP1000-expressed protein; also called ecYiiM; ecYiiM^Pi (phosphate complex in the crystal); source: E. coli BL21 (DE3) (pET49b) and E. coli …
- stoichiometry N: 2
